What was measured:
[1] = biological target: canine IgM µ-chain antigen (protein accession number E2RE31) (canine (Canis lupus familiaris)); assay: staining of cells from CLBL-1 xenograft tumours
[2] = biological target: canine IgM µ-chain antigen (protein accession number E2RE31) (canine (Canis lupus familiaris)); assay: flow cytometry screening of hybridoma clones on CLBL-1 cells

B1: CL-m17A11 (antibody, V domains shown)
VH: QIQLQQSGPELVKPGASVKVSCKASGYSFTDYNIYWVKQSHGKSLEWIGFFDPHNGNTTYNQKFKGKATLTVDKSSSTAFMHLNSLTSEDSAVYYCAREGYLYAMDYWGQGTSVTVSS
VL: DVLMTQTPLSLPVSLGDQASISCRSSQSIEHSNGNTYLEWYLQKPGQAPKLLIFKVSNRFSGVPDRFSGSGSGTDFTLKISRMEAEDLGVYYCFQGSHVPPTFGGGTKLEIKR
For B1, the % of tumour cells positive [1] was over 95% and the % binding (tier threshold of column) [2] was over 80%.

B2: CL-c17A11 (antibody, V domains shown)
VH: QIQLQQSGPELVKPGASVKVSCKASGYSFTDYNIYWVKQSHGKSLEWIGFFDPHNGNTTYNQKFKGKATLTVDKSSSTAFMHLNSLTSEDSAVYYCAREGYLYAMDYWGQGTSVTVSS
VL: DVLMTQTPLSLPVSLGDQASISCRSSQSIEHSNGNTYLEWYLQKPGQAPKLLIFKVSNRFSGVPDRFSGSGSGTDFTLKISRMEAEDLGVYYCFQGSHVPPTFGGGTKLEIKR
B2 was tested, and the % of tumour cells positive [1] was over 95%.

Source: US20250277060A1
